In the nanobody polyreactivity screen of Harvey et al. (2022):

Assay: yeast display, Sf9 membrane polyspecificity reagent, FACS + sequencing; frameworks hold sequencing errors
Summary of the method: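 Genes from sorted yeast were amplified by colony PCR, read by MiSeq 2 × 250 sequencing and filtered on CDR length. These cells carried a synthetic nanobody library in Saccharomyces cerevisiae BJ5465 and were sorted by FACS into low and high (top ~1%) gates on anti-HA and streptavidin fluorescence. Polyreactivity is labelled according to the gate of origin.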

| Sequence | polyreactivity (PSR sort gate) |
| --- | --- |
| HVQLVESGGGLVQAGRSLRLSCAASGGIFYRYAMGWYRQAPGKEWELVATISRRGGRTYYADSVKGRFTISRDYAKNTVYLQMYSLKPEDTAVDYCAADEWQSGHGLEDDYWGQGTQVTVSS | high polyreactivity |
| HVQLVETGGGFVQAGVCLRLSCAASGSIFRVYVMGWYRPATVKERELVAAISHSSGGTYYADSVKWRFTISRDNAKNTVYLQMYSLKPEDTAVYYCAARSRTRRGVHLQPSSRYGSWGQGTQVTVSS | high polyreactivity |
| HVQLVQSGGGLVQAGGSSRLSCAASGSIFFFNTMGWYSQAPGKERELVAVITSGGSTYYADSVTGRFRISRDNAKNTVYVQMNSLKPEDPAVYYCAARYLPYRRIKYDYWGQGTQVTVSS | low polyreactivity |
| HVQRVESGGGLVQAGASLRLSCAASGGIFSYNAMGWYRQAPGKERELVAAISGTGGSTYYADSVKGRFTISRDNAMNTVYLQMNSLKPEDTAVYYCAADVEYKVFPGDYWGQGPQVTVSS | low polyreactivity |
| KDQIVQSGAGLVQAGGSLRISCAPSGFIFTYNAMGWYIQAPGKEREIVATITWSGGSTYYADSVKGRFTISRDNAKNTVYLQMYSLNPEDTAVYYCAVDYSRHGYWSPVYVFNYWGQGTKVTVSS | low polyreactivity |
| KSGGGLVQAGGSLRLSCAASGRIFLEYAMAWYKQAPGKERELFASISWSGDSTYYADSVKGRFTISRDNAKNTVYLQKNSLKPEDTAVYYCNADGQVGNAVSYDYWGQGTQVTVSS | low polyreactivity |
| KVQLLESGGGLFQAGGSVRLSCAASGSIIFTYAMGWSRQSPGTEREWVAVITWCGGSTYYADSVKGRFTISRDYAKNTVYLQMNSLKPEDTAVYYCAKDSYYYRRDVTVDYWVQGTQVTVSS | low polyreactivity |
| KVQLLQTGRGLVQAGGSLRISCAASGRLFWYSDLVWYRQAPGKESELVAAISQRGGSTYYADSVKGSFTISRDNAKNTVYLQMISLKPEDTAGYYCNADFWWAYYPWEYDYWGQGTLVTVSS | high polyreactivity |
| KVQLVESGGALVQAGGSLRLSCAPSGSIFWNNAMGWYRQAPGKERELVAGISSAGSTNYADSVKGRFTISRDNAKNTVYLQLKSQKPEDTAVYYCAASYFSEYVWLRSYVRYYYWVQGTQVTVSS | low polyreactivity |
| KVQLVESGGGLFQAVGSLRLSCADSGRTLGGYAMGWYRQAPGKDRELVAAITSDTGTNYADSVKGRFTISRDNAKNTVYLQMNSLKPEDTAVYYCAAERFYEYDYWGQGTQVTVSS | low polyreactivity |
| KVQLVESGGGLVQAGASLRLSCAASGSIFATYAMGWYREEPGKERELVAAITSSDGSTNYADSVKGRFTISRDYAKNTVYLQMNSLKPEDTAVYYCATVSPDRTDSDSGFDAGYDYWGQGTQVTLSS | low polyreactivity |
| KVQLVESGGGLVQAGGSLRLSCAASGFTFYGNAMGWYRQAPGKERELVATIRYRGGRTYYADSVKGRFTISRDNAKNTVYLQMNSLKPEDTAVYYCAARSVFLMWGQGTQVTVSS | high polyreactivity |
| KVQLVESGGGLVQAGGSLRLSCAASGITSSYSAMVWYRQAPGKERELVAAITSSGGSTYYADSVKGRFTISRDNAKNTVYLQMNSLKPEVTAVYYCAARIGQYKAHTRINQYYIRYYWGQGTQVSVSS | low polyreactivity |
| KVQLVESGGGLVQAGGSLRLSCAASGLIFYDNMGWYRQAPGKERELVAAISSSGGSTSYADSVKGRFTISRDNAKITVYLQMNSLKPEDTAVYYFAADSYPAYLGFVGFDYWGQGTQVTVSS | low polyreactivity |
| KVQLVESGGGLVQAGGSLRLSCAASGLILWYYAMGWAIQAPGKERELVAAISRYGASTYYADSVKGRFTISRDNAKNTDYLQLNSLKPEDTAVYYCATGSSRYRHQRDYLGQGTQVTVSS | high polyreactivity |
| KVQLVESGGGLVQAGGSLRLSCAASGRIFYSNVMGWYRQATGKERELVAAISGRTGGTYYADSVKGRFTISRDNAKNTVYLQMNSLKPEDTAVYYCAARFIYYYGSGPDDYWGQGTQVTVSS | low polyreactivity |
| KVQLVESGGGLVQAGGSLRLSCAASGRTFESYAMGWYRQAPGKERELVAAITWSGGDTYYADSVKGRFTISRDNAKNTVYLQMNSLKPEDTAVYYCAKEQGLYSVSPYDYWGLGTQVTVSS | low polyreactivity |
